What all share (assay): activation reporter or marker
For experiment [1], the target named is IGRP 305-324 peptide on HLA-DRB1*04:01 (human).
The target in experiment [2] is GAD65 265-284 peptide on HLA-DRB1*04:01 (human).
Experiment [3] deals with T1, GAD65 353-372 peptide on HLA-DRB1*04:01 (human).
T1 peptide: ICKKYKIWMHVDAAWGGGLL

Experiment [4] has as its target T2, GAD65 553-572 peptide on HLA-DRB1*04:01 (human).
T2 peptide: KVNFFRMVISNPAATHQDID

The target of experiment [5] is T3, GAD65 113-132 peptide on HLA-DRB1*04:01 (human).
T3 peptide: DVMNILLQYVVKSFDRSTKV

The target of experiment [6] is T4, GAD65 105-124 peptide on HLA-DRB1*04:01 (human).
T4 peptide: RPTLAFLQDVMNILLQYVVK

For experiment [7], the target named is T5, ZNT8 1-20 peptide on HLA-DRB1*04:01 (human).
T5 peptide: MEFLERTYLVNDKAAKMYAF

Experiment [8] addresses IGRP 241-260 peptide on HLA-DRB1*04:01 (human).
For experiment [9], the target named is T6, ZNT8 266-285 peptide on HLA-DRB1*04:01 (human).
T6 peptide: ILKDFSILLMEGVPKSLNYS

B1: Clone_2356 (TCR)
alpha TRAV25 TRAJ36 CDR3: CAGQTGANNLFF
beta TRBV4-3 TRBJ1-5 CDR3: CASSQEVGTVPNQPQHF
Take B1: in experiment [1], the binding result is “recognises”.

B2: Clone_478 (TCR)
alpha TRAV3 TRAJ28 CDR3: CAVRDMRGAGSYQLTF
beta TRBV6-5 TRBJ2-7 CDR3: CASSLGTGTGVYEQYF
In the case of B2, the binding result in experiment [2] was “recognises”.

B3: Clone_2312 (TCR)
alpha TRAV14DV4 TRAJ15 CDR3: CAMREMNQAGTALIF
beta TRBV6-2 TRBJ1-5 CDR3: CASTKGGTHQPQHF
B3: in experiment [3], the binding result is listed as “recognises”.

B4: Clone_578 (TCR)
alpha TRAV8-3 TRAJ32 CDR3: CAVGAGYGGATNKLIF
beta TRBV12-3 TRBJ2-7 CDR3: CASSFRGGGNPYEQYF
As for B4, the binding result in experiment [4] is “recognises”.

B5: Clone_640 (TCR)
alpha TRAV41 TRAJ49 CDR3: CAAAGNQFYF
beta TRBV12-4 TRBJ2-1 CDR3: CASSFTYNEQFF
For B5, in experiment [5], the binding result was “recognises”.

B6: Clone_5 (TCR)
alpha TRAV3 TRAJ13 CDR3: CAVRDSFSGGYQKVTF
beta TRBV12-4 TRBJ2-7 CDR3: CASSPLAGAWSYEQYF
With B6, in experiment [1], the binding result is “recognises”.

B7: Clone_262 (TCR)
alpha TRAV12-3 TRAJ29 CDR3: CAMEGGRYNTPLVF
beta TRBV5-6 TRBJ1-1 CDR3: CASSVNRGHNTEAFF
Regarding B7, the binding result in experiment [5] is listed as “recognises”.

B8: Clone_2073 (TCR)
alpha TRAV8-6 TRAJ57 CDR3: CAVKLQGGSEKLVF
beta TRBV2 TRBJ1-5 CDR3: CASKYNRGEQPQHF
For B8, the binding result in experiment [6] is listed as “recognises”.

B9: Clone_1662 (TCR)
alpha TRAV13-1 TRAJ41 CDR3: CAASGANSGYALNF
beta TRBV30 TRBJ2-5 CDR3: CAWSAQGETQYF
Consider B9, for which the binding result in experiment [7] is “recognises”.

B10: Clone_904 (TCR)
alpha TRAV9-2 TRAJ52 CDR3: CALSDYSGTSYGKLTF
beta TRBV11-2 TRBJ2-1 CDR3: CASSLIPYNEQFF
B10: in experiment [5], the binding result is “recognises”.

B11: Clone_271 (TCR)
alpha TRAV20 TRAJ39 CDR3: CAVQAGNAGNMLTF
beta TRBV7-6 TRBJ2-2 CDR3: CASSLGVTGELFF
Take B11: the binding result in experiment [5] is “recognises”.

B12: Clone_2062 (TCR)
alpha TRAV20 TRAJ39 CDR3: CAVQAGNAGNMLTF
beta TRBV7-6 TRBJ2-2 CDR3: CASASGVVGELFF
Regarding B12, in experiment [5], the binding result is given as “recognises”.

B13: Clone_839 (TCR)
alpha TRAV17 TRAJ6 CDR3: CATDEGGSYIPTF
beta TRBV11-3 TRBJ2-2 CDR3: CASSFSGELFF
On to B13, for which the binding result in experiment [5] is listed as “recognises”.

B14: Clone_2353 (TCR)
alpha TRAV26-2 TRAJ48 CDR3: CILRDTISNFGNEKLTF
beta TRBV7-9 TRBJ1-2 CDR3: CASSFGSSYYGYTF
Regarding B14, the binding result in experiment [1] was “recognises”.

B15: Clone_855 (TCR)
alpha TRAV8-2 TRAJ27 CDR3: CVVSVGTNAGKSTF
beta TRBV11-3 TRBJ2-2 CDR3: CASSFSGELFF
Take B15: the binding result in [8] was “recognises”.

B16: Clone_300 (TCR)
alpha TRAV17 TRAJ22 CDR3: CATDSSSGSARQLTF
beta TRBV5-1 TRBJ2-7 CDR3: CASSLVGGRVDWREQYF
As to B16, in experiment [1], the binding result is recorded as “recognises”.

B17: Clone_295 (TCR)
alpha TRAV5 TRAJ22 CDR3: CAESTSGSARQLTF
beta TRBV30 TRBJ2-1 CDR3: CAWMGGYNEQFF
Consider B17, for which the binding result in [9] is recorded as “recognises”.

B18: Clone_667 (TCR)
alpha TRAV5 TRAJ7 CDR3: CAERLYGNNRLAF
beta TRBV6-1 TRBJ2-7 CDR3: CASTLLWGGDSYEQYF
For B18, the binding result in experiment [5] was “recognises”.

B19: Clone_1826 (TCR)
alpha TRAV13-2 TRAJ20 CDR3: CAENRSDYKLSF
beta TRBV28 TRBJ2-5 CDR3: CASSSQGQGKETQYF
Take B19: the binding result in experiment [7] is “recognises”.

B20: Clone_896 (TCR)
alpha TRAV12-2 TRAJ15 CDR3: CAVNPNQAGTALIF
beta TRBV6-6 TRBJ1-5 CDR3: CASAPQEAQPQHF
Regarding B20, the binding result in experiment [8] is reported as “recognises”.

These data come from article PMC8663791 (2021).
